This note sets out measurements from a protein production outcome set (Wang et al. 2014).

A short description of this series: label from the status in PepcDB records.
In the case of “MPPQRRRRPEPEAPAPGRRGRRPEKKKSRGKRVLLWTGGSMAFVVLVAGVGGYVYLKHLEGNVSTTDVGTAGSSSFKKDEAFNILIIGTDKRTGEGNEGYGDKGSAGHADTNILLHVAEDRSNATALSIPRDLIVDIPDCETTQEDGTKKVIPGTSGVRFNQSLGDFGRDAGCTMRTVAETTGIKPDHFMMADFNAVKTLTTAVDGVDVCVEHAVDDPKSHLKLPAGESKVEGEQALAFVRTRHAFGNEGDLDRIKVQQQFLGSLMRKMASGDTLTSPTKLVKLAEAATKALTVDSAIGKVGTLKDIALELKKVPTKNITFTTVPVIDNPAEKVKATVVVNEAKGPQVFDMIKNDISFTEVEQQKKKEKAAVAARLKGEKSEPGEVRVRVMNGGAPAGSAQQELAYLQTQAGVSKSENAGNAPADIAKTTLEYAPDQADQARALAEILGLTGAAMKPGESVTNSQGLPTMTLTLGKDFKGAGVKLDGSVKKPDLDTESTADQKLCAS”, the protein production result is “failed”.

On to “MPPRIEDILPHRGSMLLLAHVDTWDDETLRASAHVDPTAWYADPEGAMPAWFGIELMAQAIAAHVGLLSMREGNPARPGVLLGSRKYEAHAPAFAPAQPLSIAVQEVLRSTEGHGAYACTIAAGGRDLAQAVIKVYQPTDFQAFIEGLEHHHHHH”, for which the protein production entry was “failed”.

With “MPPRKKPKSSALKSNKQSSANHSSQPSTFGIQQLFLRHIQNSQSTSNSHTSTADPVDQQNVNGLASDTAVLTPQNPLGTSNEKPDESKDMDQQLTEASPKISKNLKRFSPGMLIKQSQDDCGGEITWKISPVNERLRAAAKNIPKMMDLTENSLGKQCPTSGITSKVEQWLSSPSKKASKRPAFATNRVMERVNPSPDAEFEIVNTSSSGNSPFQTPPSLSCPHNKLPCTVTCSGACGSMGAGQHKKALLELLDQVEDVIAVDDKTTDDVGIVMPQARVKDDIISSVVDCAVDEGPVSLPKMQNSINPDSYFLVLEVSEKRGSGSSSKGQCPYKVLRLLDEHTGVECALYLWDEWFYSTVSPGDSINVIGEFDGDGKCDVDRQNNFLIVHPDTLVAGTRVAASFGCPRRTVLDERLRSNEHATVALLGTLQHQVFQAGLSQESPSVDGLQEYASTVIEKSIESLYACGVHEGDVRSTLFKAIPKMLNWIEHFRYSKDSEVSKVDFGSTIGKKAVKVSEVIDIEEMSWAPKYGLKGMIDASVRVIVESDMNTVNEKIMPLEFKSGKAPSGQSSIEHSAQVILYTLLMSERYLKHIDNGLLYYLQSDQTQGISVQRSDLVGLIIRRNELANDILVASTTQQLPPMLRADGGNTESSGLGDVFDTHVSHLSTLHFNFLRHWDRLIDLEGREMQLLRKDIAHPHGSKGSHSASYLSSMVLDVTNGFQHHNSHKETRFIYRFVRQKSSESRERVTSEDMIRTGNLATDDLDCKLRTGDRVILRTEVSHLTVANGIIADISRTHISVSLSKRLRLPWSEPSSEVSNLSHELWRIYKDEFMTSFSVMRFNLMQLFVQNGHNIRKMIVDLEPPRFDNGSILSQDPAISYIWSEKSLNNDQRQAILKILTAKDYALILGMPGTGKTSTMVHAVKALLIRGSSILLASYTNSAVDNLLIKLKAQGIEFLRIGRDEAVHEEVRESCFSAMNMCSVEDIKKKLDQVKVVASTCLGINSPLLVNRRFDVCIIDEAGQIALPVSIGPLLFASTFVLVGDHYQLPPLVQSTEARENGMGISLFRRLSEAHPQAISVLQNQYRMCRGIMELSNALIYGDRLCCGSAEVADATLVLSTSSSTSPWLKKVLEPTRTVVFVNTDMLRAFEARDQNAINNPVEASIIAEIVEELVNNGVDSKDIGIITPYNSQASLIQHAIPTTPVEIHTIDKYQGRDKDCILVSFVRSREKPRSSASSLLGDWHRINVALTRAKKKLIMVGSQRTLSRVPLLMLLLNKVKEQSGILNLLPGDLKP”, the protein production result is “failed”.

“MPQFPWKDNDAELSPLEAFLAEWDDPEAEEEDFRNDFFRGSEGRRKKAAVMLMAIWTVVITLHYWVWGSWLVWALTGALSLQALRLMKATPEEAPPLLTGDASTVPYPQVCLMVAAKNEEAVIGKIVQQLCSLDYPGDRHEVWIVDDNSTDRTPAILDQLRQQYPQLKVVRRGAGASGGKSGALNEVLAQTQGDIVGVFDADANVPKDLLRRVVPYFASPTFGALQVRKAIANEAVNFWTRGQGAEMALDAYFQQQRIVTGGIGELRGNGQFVARQALDAVGGWNEQTITDDLDLTIRLHLHQWKVGILVNPPVEEEGVTTAIALWHQRNRWAEGGYQRYLDYWRWICTQPMGWKKKLDLFSFLLMQYLLPTAAVPDLLMALWQRRFPLLTPLSYLAIGFSCWGMYYGLKRLTPSEGESPWQQMPALLARTIGGTIYMFHWLIIMPAVTARMAFRPKRLKWVKTVHGAATEDALELKQS”: the protein production result is given as “failed”.

With “MPQNYPWLNTEQPLSIKQLNGRVVILDFWTYCCINCLHVLPDLKYLEQKYKDSLTVIGVHSAKFDNEQETENIRQAILRYDIEHPVLVDKDFRVWQEYAVRAWPTLMVIDPKGYVIGYVSGEGNRDKLDQLITQVIQEHQGAINFQQLSLTLEKQRQPLITPLAFPGKVLATPSGLFVADSGHHRIVVSDFNGEILHLIGNGKSGLTDGNFQEAQFSAPQGMAFDMENQILYLADTENHALRRVDINQQTVETIAGTGEQSRNIQPHGGVGLETALNSPWDLVNIENSLYIAMAGVHQIWQMDLASGVIKTYAGTGVEACLDASLTESAFAQPSGITNNEQELYIADSEISSIRGVGLVEPQEVRTVCGSGGLFGFGDVDGQGEDVRLQHCLGVEYFQNYLWVADTYNHKIKSVSPHTGNCQTVLGDGLAGLQNGQGKNTRFFEPSGLSAIDSYLYISDTNNHVIRRVDLRTLEVTTMQFNGLCAPDVCIPNNFLEHHHHHH”, the protein production entry is listed as “not failed”.

As to “MPQPDPQGFRRSLFLYRRAGMAEIGDFAVKFMIGIRSKRMITLPSLNNLPSKWDEIRHCLETRVFECGVMPYPNLTECEAGQFERDFWDNIGCAPEEYVRIRRAIRLLELRYPDSLNELVCAAIATPLGEMLAVFGVKGLCLLEFVGQKYLEQEIAAVQKALRGRFVFREDGRMQFLRQELDLYFKGHLKTFATPLEQIGTEFQKQAWDALLAIPYGETRSYKEQAQRLGNPKAVRAVAAANGQNKVSVMIPCHRVIGSDGKLTGYAGGLNRKQFLLALERGEVQTALF”, the protein production entry is listed as “failed”.

As for “MPQPTSQQRASVASSQSTQGAVGWSAATGWVVLFVAVALVVWFVSLDMRHLVGPDEGRYAEISREMFASGDWVTIRYNALKYFEKPPFHMWVTVVGYELFGLGEWQARLAVALSGLLGIGVSMMAARRWFGARAAAFTGLALLAAPMWSVAAHFNTLDMTLAGVMSCVLAFMLMGQHPDASVAARRGWMVACWAAMGVAILTKGLVGIALPGLVLVVYTLVTRDWGLWRRLHLALGVVVMLVITVPWFYLVSVRNPEFPNFFFIHEHWQRYTSNIHSRSGSVFYFLPLVIGGFLPWAGIFPKLWTAMRAPVEGTQARFRPALMAGIWAIAIFVFFSISRSKLPGYIVPVIPALGILAGVALDRLSPRSWGKQLIGMAIVAACGLLASPVVATLNANHIPNSFYRAYAVWVAVAFVVMLLGIAVARLLLRRGVLPSVAVYAMGMYLGFTVALLGHETVGRPASGADIAPQIAQKLTPEMPLYGVQMLDHTLPFYLRHPLMMVGQADELTFGATVEPQRVVPDVDSFTKLWKNGQPAMAVMSPDTYLALAPTLSMYVVARDWRRVVVANVASLAGPQ”, the protein production entry is on record as “failed”.

For the sequence “MPQPTVLLLARADLSPVGTEFTTGPIDAHDPFDSGRRTAFVDEQGIAAGIVEFGTALSVEAYPYTEMLVMHRGSVTLTSGTDSVTLSTGESAVIGRGTQVRIDAQPESLWAFCASTQASGPDKSGITALDRLALLTPSSPPDPSIMISPLPQCRSNNLFEDTASTLRIGVWDSTPYERISRPHKIHELMNLIEGRVVLSLENGSSLTVNTGDTVFVAQGAPCKWTSTGYVRKFYAVT”, the protein production result is “not failed”.

For the sequence “MPQTSSLLGIDALYQFTGAGAQLFSGALFYTVIVRFFSASQVGAVALFIAIIGLFNLIFSFGLGTAVQHFASYHLGRQEYATAKSIVFKILILGIIFSSIGLITMFYLAKPISITFMHTAQYTPIVKLLSIVLVGDVLFGLLNGSALGLQLFRASGLMNIIIWITYYSTALVLAFLLKSLYYVVVGWSVGIFLGVILYLYLIIKSTKNYKGRPRHLTPSLLFQFSIPVLLSSIISYGATYIDRFIVAGLMTLSALGVYNFALLVASSIGFIVAPLNNIMLPKFSEFYGEGNRENIKNRTAIATTVVAGVYVPAALGVAVLSKMIITLLAGKYYEEGSDAISIIMVFSALFVTSNVMTQLIAAVRETRVFIYSSAASLASNAILSIILIPHFGIEGASIGFSSIYAASFFVLYKYAKKTGFYQANVYDLAKVWGSSLVMVFVVLAFEVRFGTSIDLLVPYILLGAVVYLGMIKSTRLIHRNEALFLSSLFPQSMPFITKLIRLISSE”, the protein production entry is “failed”.

As to “MPREFKSFGSTEKSLLSKGHGEPSYSEIYAEPENFLEIEVHNPKTHIPNGMDSKGMFTDYEIICRTNLPSFHKRVSKVRRRYSDFEFFRKCLIKEISMLNHPKVMVPHLPGKILLSNRFSNEVIEERRQGLNTWMQSVAGHPLLQSGSKVLVRFIEAEKFVG”, the protein production entry was “not failed”.

For the sequence “MPRITTDTIIADVLRIDRGTIPIFLNNGLHCLGCPSAQGESIEEACALHGIDAQKLVDELNEYLKSKGLLDLEHHHHHH”, the protein production entry was “not failed”.

With “MPRMEALFNTVVPVALVVLSGYLLGRQLEMDLSTLSRLTLYALVPALILDSMYRAEYTLEGVWGLVLGFSLTYALLFLLVQGAGKLFGLSRETTKTLLVCGLFPNSGNMGLSLVYFALGEEGLRRAVVYFLLSSALMFGLGPAFIRGGSLKEGLLFTLRLPLFYALFLGLLLKALGLSLPFRLEEGVRLMGQAAIPVLLLTLGMQMGKTRFHLGPFEGAASALRLLLAPLVAYGVGALLGLPRLEHQVLVLQSATPVAVNAFLLTREFGGDALRVARSVVVSTFLAFLTVPLVLYLLGVR”, the protein production entry is “failed”.

As for “MPRPDNVPVYTMRQLAAFVAVAETGTISGAAERMHLSQSALSAAVTDLEKALKAQLCVRRRARGVQLTPTGEAVLSRARALLQQAGELQSDASGEGGV”, the protein production entry was “failed”.

Regarding “MPRPSLRRGEETSGARSLHEIAPPAEKAVRKPLNLLPFRKDTPMTKDSYFHKSRAGVAGAPLFVLLHGTGGDENQFFDFGARLLPQATILSPVGDVSEHGAARFFRRTGEGVYDMVDLERATGKMADFIKANREHYQAGPVIGLGFSNGANILANVLIEQPELFDAAVLMHPLIPFEPKISPAKPTRRVLITAGERDPICPVQLTKALEESLKAQGGTVETVWHPGGHEIRSGEIDAVRGFLAAYGG”, the protein production result is reported as “not failed”.

As for “MPRRTATMLASTLMLIALLCAGVFIKVPYAEMSPGPTVNTLGEHDGEPVLQITGHKTYATTGHLNMTTVRVTSADYRMNLVEAVYGWLAHDNKVVPHDTLYPDGKTEEQSTQENAEEFSQSQESAKVAALKELDIPVKSWVIVSTVLKDSPAEGRLHAGDVIKAVDGTAVKAPDDVAELVTKHKPGDDVAFTILPAKEQAAAEKSKTYVPRTKKVTITTAKSDDTGAPRAIVGISAGTDHTFPFTVDIKLADVGGPSAGLMFALGIVDKLTPDDLTGGKFVAGTGTIDDDGKVGPIGGIEMKTVGAREKGAQYFLTPKDNCAAAAKDTPEGLTLVKVNTIDDALDALKDIRTGKTADLPKCTTKG”, the protein production result is reported as “failed”.

Regarding “MPRSQADSALAEAERHLAAGRSQQAREAFRRARLFFHRCADTDGEAIVLVRLGEAELAAGHLASAKEALSDALALLSHETDPSARADALHLMGSLKNAEKNAPERDRLWAEAVSAHRDHGNKAGEARVLRDQAQVAKATGKDDLAFDLFSRAHRLYADLGHSFHEAMILLEIGQLHRAQGRADLAHDALERAADLFRVNGDTLDEGRTRLTLARLLRDLGDKETALRDLTLCAKLFGANGHLGGQAEALIDLARLEAAKAPKAALKMLHQARALAARSGIPSLQTQAASEIARLDQAALKDTP”, the protein production entry is “failed”.
